Residue numbers refer to the chain shown, from its start.
T1: human CD73 protein (ACRO Biosystems, Cat No. CD3-H52H7) (human, UniProt P21589 27-547)
T1 sequence: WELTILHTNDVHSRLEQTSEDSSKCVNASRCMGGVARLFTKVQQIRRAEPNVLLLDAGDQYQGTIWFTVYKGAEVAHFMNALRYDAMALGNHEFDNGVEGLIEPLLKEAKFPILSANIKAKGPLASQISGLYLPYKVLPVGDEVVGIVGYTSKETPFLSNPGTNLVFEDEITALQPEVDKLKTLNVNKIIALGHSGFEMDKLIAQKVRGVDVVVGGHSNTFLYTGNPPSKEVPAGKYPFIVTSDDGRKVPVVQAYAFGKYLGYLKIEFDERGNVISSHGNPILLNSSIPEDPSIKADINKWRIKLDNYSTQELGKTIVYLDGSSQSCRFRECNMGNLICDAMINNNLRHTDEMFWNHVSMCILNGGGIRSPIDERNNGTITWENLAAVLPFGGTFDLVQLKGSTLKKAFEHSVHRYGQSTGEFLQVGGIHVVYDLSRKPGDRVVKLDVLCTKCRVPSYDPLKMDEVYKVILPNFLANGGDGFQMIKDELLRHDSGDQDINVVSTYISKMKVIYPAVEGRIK

T2: human CD73 on the cell surface (human, UniProt P21589 27-549)
T2 sequence: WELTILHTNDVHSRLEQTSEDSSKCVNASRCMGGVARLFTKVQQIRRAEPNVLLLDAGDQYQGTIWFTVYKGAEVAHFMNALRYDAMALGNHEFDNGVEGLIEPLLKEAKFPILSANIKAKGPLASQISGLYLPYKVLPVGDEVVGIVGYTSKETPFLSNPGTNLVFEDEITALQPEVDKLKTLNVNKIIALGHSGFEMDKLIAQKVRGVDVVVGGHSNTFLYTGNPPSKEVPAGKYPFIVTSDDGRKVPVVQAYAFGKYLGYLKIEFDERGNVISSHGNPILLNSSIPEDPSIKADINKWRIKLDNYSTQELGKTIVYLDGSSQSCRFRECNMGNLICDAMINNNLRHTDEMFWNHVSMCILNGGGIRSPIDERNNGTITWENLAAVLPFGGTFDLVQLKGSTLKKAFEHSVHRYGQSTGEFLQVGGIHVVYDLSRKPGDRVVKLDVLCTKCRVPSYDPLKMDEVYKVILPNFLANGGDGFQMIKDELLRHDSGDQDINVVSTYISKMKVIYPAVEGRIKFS

T3: monkey CD73 (Novoprotein, Cat No. C121) (monkey, UniProt A0A2K5V5U7 27-549)
T3 construct: Bought protein; also called monkey CD73 protein
T3 sequence: T2 sequence with M199T, T350A, V466I

B1: 900695 (antibody, V domains shown)
VH: QVQLVESGGGLVKPGGSLRLSCAASGFTFSKYAMSWVRQAPGKGLEWVAEISSGGGYINYADSVTGRFTISRDNAKNSLYLQMNSLRAEDTAVYYCARAIYYYGSSYNYYAMDYWGQGTTVTVSS
VL: DIQMTQSPSSLSASVGDRVTITCRASQDVGTAEAWYQQKPGKAPKLLIYWASTRHTGVPSRFSGSGSGTDFTLTISSLQPEDFATYYCQQYSSYPLTFGQGTKLEIK
notes: Constant regions are not restated
B2: 900697 (antibody, V domains shown)
VH: B1 VH
VL: B1 VL with R54L, H55Q, T56S
notes: as for B1
B3: 900698 (antibody, V domains shown)
VH: B1 VH with V37I, T65K
VL: B1 VL
notes: as for B1
B4: 900696 (antibody, V domains shown)
VH: B1 VH with V37I, T65K
VL: B1 VL with R54L, H55Q, T56S
notes: as for B1
B5: 900581 (antibody, human IgG1, V domains shown)
VH: EVQLVESGGGLVKPGGSLKLSCAASGFTFSKYAMSWVRQSPEKRLEWVAEISSGGGYINYPDTVTGRFTISRDNAKNTLYLEMSSLRSGDTAMYYCARAIYYYGSSYNYYAMDYWGQGTSVTVSS
VL: DIVMTQSHKFMSTSVGDRVSITCKASQDVGTAEAWYQQKPGQSPKLLIYWASTRHTGVPDRFTGSGSGTDFTLTIGNVQSEDLADYFCQQYSSYPLTFGGGTKLEIK

What follows are binders tested against T1, human CD73 protein (ACRO Biosystems, …) (assay: cell-based or functional assay).

Row | Binder | EC50(µg/mL), inhibition of recombinant CD73 (CellTiter-Glo)
1 | B1 | 0.746 µg/mL
2 | B2 | 0.585 µg/mL
3 | B3 | 0.588 µg/mL
4 | B4 | 0.751 µg/mL
5 | B5 | 0.262 µg/mL

These binders were tested against T2, human CD73 on the cell surface (assay: cell-based or functional assay).

Row | Binder | Endocytosis efficiency (%)
6 | B2 | 98.2%
7 | B3 | 96.3%
8 | B5 | 78.8%

The binders below were run against T3, monkey CD73 (Novoprotein, Cat No. C121) (assay: SPR (Biacore T200), antibody captured on protein A chip, CD73 as analyte, 1:1 model).
Description: The temperatures of the sample chamber and flow path were set at 25° C. The protein A chips separately captured the antigen-binding proteins as ligands, which were immobilized at about 100 RU. […] Ten mM Glycine, pH 1.5, was regenerated for 60 s at a flow rate of […] for multiple cycle kinetic detection. The binding rate constant (ka), dissociation rate constant (kd) and dissociation equilibrium rate constant (KD) were fitted using the Fit local mode of a 1:1 binding model.

Row | Binder | Kd | koff | kon
9 | B1 | 0.822 nM | 0.000148 s⁻¹ | 180000 M⁻¹ s⁻¹
10 | B2 | 2.13 nM | 0.000137 s⁻¹ | 64100 M⁻¹ s⁻¹
11 | B3 | 1.41 nM | 0.000115 s⁻¹ | 108000 M⁻¹ s⁻¹
12 | B4 | 0.604 nM | 0.000214 s⁻¹ | 354000 M⁻¹ s⁻¹
13 | B5 | 1.05 nM | 0.000358 s⁻¹ | 349000 M⁻¹ s⁻¹

Target: T2, human CD73 on the cell surface
Experiment: cell-based or functional assay
Remark: another data set of the same source

Row | Binder | EC50(µg/mL), inhibition of enzyme activity of CD73 on CHOK1-huCD73-3F4 cells
14 | B2 | 1.97 µg/mL
15 | B3 | 1.43 µg/mL
16 | B5 | 1.85 µg/mL

What follows are binders tested against T2, human CD73 on the cell surface (assay: flow cytometry on CHOK1-huCD73-3F4 cells, PE anti-human Fc).
Description: All the antigen-binding proteins were diluted to 30 μg/ml with PBS solution containing 1% BSA (1% BSA/PBS), diluted at 3-fold into 11 gradients and then added to a 96-well U-shaped plate at 20 μL/well, and negative control (1% BSA/PBS was added only) was set up simultaneously. The suspension of human CD73-expressing cells (CHOK1-huCD73-3F4, Huabo Biopharm) in the logarithmic growth phase were collected and centrifuged at 1000 rpm for 5 min, and the culture medium was discarded; then the cells were resuspended with 1% BSA/PBS to a viable cell density of 1×10⁶/mL, and then added into the 96-well U-shaped plate already added with anti-CD73 antigen-binding protein at 20 μL (2×10⁴ cells)/well for reaction at room temperature for 30 min. […] After the reaction, the cells in the 96-well U-shaped plate were resuspended with 1% BSA/PBS and centrifuged at 300 g for 3 min and the supernatant was discarded; after washing in this manner 3 times, and the cells were finally resuspended with 1% BSA/PBS at 100 μL/well, and the fluorescence intensity of the PE channel was measured with a flow cytometer (BD, #Canto II).

Row | Binder | EC50
17 | B1 | 0.594 µg/mL
18 | B2 | 0.518 µg/mL
19 | B3 | 0.688 µg/mL
20 | B4 | 0.684 µg/mL
21 | B5 | 0.347 µg/mL

Source: patent US20240026024A1 (SHANGHAI HUAOTA BIOPHARMACEUTICAL, published 2024)
